Data reported in patent US20100129344A1, “MEDICAL USES AND THERAPIES BASED UPON THE ACTION OF AZUROCIDIN ON IGFBP-1” (priority 2005, published 2010).

T1: IGFBP-1 (Homo sapiens, UniProt P08833)
T1 construct: purchased Kabi Pharmacia (Sweden), donated
T1 sequence (P08833 26-259): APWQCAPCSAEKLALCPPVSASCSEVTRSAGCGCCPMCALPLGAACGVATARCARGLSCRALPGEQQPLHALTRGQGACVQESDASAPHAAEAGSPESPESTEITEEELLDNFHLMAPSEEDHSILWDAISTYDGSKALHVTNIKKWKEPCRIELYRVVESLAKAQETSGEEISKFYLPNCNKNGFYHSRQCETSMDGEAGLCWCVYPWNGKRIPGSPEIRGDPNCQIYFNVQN

B1: partially purified azurocidin: desalted eluate of heparin affinity chromatography of human urine, containing azurocidin, myeloperoxidase and lactoferrin (protein)
chain: IVGGRKARPRQFPFLASIQNQGRHFCGGALIHARFVMTAASCFQSQNPGVSTVVLGAYDLRRRERQSRQTFSISSMSENGYDPQQNLNDLMLLQLDREANLTSSVTILPLPLQNATVEAGTRCQVAGWGSQRSGGRLSRFPRFVNVTVTPEDQCRPNNVCTGVLTRRGGICNGDGGTPLVCEGLAHGVASFSLGPCGRGPDFFTRVALFRDWIDGVLNNPGP
B2: Recombinant human azurocidin^27-250: recombinant azurocidin 27-250 purified from murine myeloma cells, R&D Systems (protein)
chain: IVGGRKARPRQFPFLASIQNQGRHFCGGALIHARFVMTAASCFQSQNPGVSTVVLGAYDLRRRERQSRQTFSISSMSENGYDPQQNLNDLMLLQLDREANLTSSVTILPLPLQNATVEAGTRCQVAGWGSQRSGGRLSRFPRFVNVTVTPEDQCRPNNVCTGVLTRRGGICNGDGGTPLVCEGLAHGVASFSLGPCGRGPDFFTRVALFRDWIDGVLNNPGPGP

Legend:
IGFBP-1 [1] = target: T1, IGFBP-1; assay: Azurocidin-dependent IGFBP-1 protease activity (SDS-PAGE, ECL or silver staining); type: biochemical; settings: for effect on IGFBP-1 (proteolysis): commercial recombinant protein from mouse myeloma cells
Procedure: Recombinant phosphorylated IGFBP-1 was used as substrate and incubations were carried out under neutral conditions for 2 h at 37 C. IGFBP-1 fragments were separated on SDS-PAGE, and detected by ECL as described in the methods. Panel A: Incubations with 0.25 μL eluate (HE) from heparin affinity chromatography (50 μl urine equiv.) in the presence and absence of anti-azurocidin antibody; and 1 μl HE of the loading material (L), and the flow through after affinity chromatography on protein G columns without (G) and with bound anti-chymase (C) or anti-azurocidin (A) antibodies. Panel B: Incubations in the presence and absence of 25 ng anti-azurocidin antibody with increasing volumes of white cell extract from the individual with a specific IGFBP-1 protease in urine compared to the white cell extract pooled from 6 healthy subjects;
Recombinant IGFBP-1 was incubated with the eluate from heparin affinity chromatography (HE) with a ratio of azurocidin:BP-1 of 1:3,500. After the times indicated, proteins were detected by silver staining after SDS-PAGE;
Gels were fixed, dried and analysed with the Fuji PhosphoImage program (Fuji Co., Stockholm, Sweden). Biotinylated IGFBP-1 and its fragments were separated on 14% SDS-PAGE under reducing conditions, transferred to PVDF (Biorad, Sundbyberg, Sweden), incubated with neutravidin-horseradish peroxidase (Pierce Biotechnology Inc, Rochester, Ill.) and detected by ECL (Amersham Biosciences, Uppsala, Sweden). Silver staining of proteins and fragments was performed after denaturing 12% PAGE under reducing conditions (SilverQuest and NuPAGE, Invitrogen, Stockholm, Sweden).
Heparin affinity chromatography was carried out in batches using heparin-agarose gel (Pharmacia). Urine was diluted 1:5 in 10 mM sodium phosphate, with 0.25 M NaCl buffer, pH 7 and incubated with gel for 30 min at 4 C. The gel was transferred to a column and washed with 10 times the gel volume of buffer. Heparin binding proteins were eluted in loading buffer containing 2M NaCl and the eluate was desalted, concentrated using a 10 kDa spin column and stored at −80 C. Concentrated material derived from 700 ml urine were applied to C4 reverse-phase HPLC, in 0.1% TFA on an acetonitrile gradient of 0-100%. Immunoaffinity chromatography was performed using monoclonal anti-azurocidin antibody attached to protein G Sepharose (Sigma-Aldrich, Sweden). In brief, antibody bound gel was incubated with the eluate from heparin affinity chromatography for 2 h at 22 C, and transferred to a Bio-Spin chromatography column (BioRad). The flow-through was collected for analysis of protease activity. As controls, an additional column was prepared with a monoclonal antibody against human mast cell chymase and a second column with no bound antibody.

IGFBP-1 [2] = target: T1, IGFBP-1; assay: Sequence analysis of IGFBP-1 fragments after azurocidin-dependent proteolysis; type: biochemical
Procedure: A: Recombinant npIGFBP-1 was incubated without (−) and with (+) 0.25 μl partially purified azurocidin in a protease:substrate ratio of 1:3 500 for 2 h at 37 C. The fragments were purified on HPLC. N-, purified fragments with the N-terminal sequence of IGFBP-1, APWQCAP-, c-, small fragment with the sequence STYDGSK-, C-, purified C-terminal fragments with the sequence TNIKKWK-. Samples were separated on 12% SDS-PAGE and visualised by silver staining. Molecular mass markers are indicated by the arrows. B: Summary of sequence analysis of IGFBP-1 fragments after azurocidin-dependent proteolysis. N-terminal sequence analysis was performed on fragments purified by HPLC on 4 separate occasions. C-terminal sequence analysis was perform on one HPLC run. Cleavage sites are indicated by the arrows. a, the primary cleavage site present in 4 runs. b, a secondary cleavage site, present in 3 runs. c, cleavage sites, each identified in only one of the four runs. […]
The primary cleavage site in IGFBP-1 was determined by HPLC-separation of phosphorylated IGFBP-1 after incubation with heparin eluate, and HPLC purification of fragments, followed by N- and C-terminal sequencing. […] N- and C-terminal sequencer degradations were performed on HPLC purified proteins in ABI instruments as described (refs 2 and 3), From this analysis, the quantity of azurocidin quantity in urine was estimated to be 25 pmol/100 ml.

Row | Molecule | IGFBP-1 proteolytic activity after exposure to 0.1% TFA (IGFBP-1 [1]; 0.1% TFA in HPLC buffer, lyophilization, reconstitution in assay buffer) | IGFBP-1 protease activity (IGFBP-1 [1]; after heparin affinity chromatography of urine) | IGFBP-1 proteolytic activity after reduction with dithiothreitol (IGFBP-1 [1]; data not shown) | secondary cleavage site in IGFBP-1 (IGFBP-1 [2]; present in 3 of the HPLC runs) | primary cleavage site in IGFBP-1 (IGFBP-1 [2]; present in all 4 HPLC runs, confirmed by C-terminal sequence analysis) | effect on IGFBP-1 (proteolysis) (IGFBP-1 [1]; data not shown) | effect on IGFBP-1 (proteolysis) (IGFBP-1 [1]; data not shown, listed as recombinant azurocidin)
1 | B1 | abolished | present | loss of activity | Val^141-Thr^142 | Ile^130-Ser^131 | – | –
2 | B2 | – | – | – | – | – | no effect | lacked activity
